In article PMC12203670:
Values joined by “and” are separate entries in the source; they are usually repeats but may differ in a detail not shown here. Equal values may be shown once.

Target: PKM2 (pyruvate kinase M2), endogenous in mouse heart (mouse (endogenous in heart)) (UniProt P52480)
Test: cross-linking; cross-linking of cardiac PKM2, Western blot of monomer, dimer and tetramer; hearts of Ctrl and cKO mice after 3-h reperfusion, with TEPP-46 or vehicle, or with Ad-Mtx2

Chain of PKM2 (pyruvate kinase M2), endogenous in mouse heart, P52480 1-531 (enzyme; other documents disagree on this pair) (P52480 whole entry): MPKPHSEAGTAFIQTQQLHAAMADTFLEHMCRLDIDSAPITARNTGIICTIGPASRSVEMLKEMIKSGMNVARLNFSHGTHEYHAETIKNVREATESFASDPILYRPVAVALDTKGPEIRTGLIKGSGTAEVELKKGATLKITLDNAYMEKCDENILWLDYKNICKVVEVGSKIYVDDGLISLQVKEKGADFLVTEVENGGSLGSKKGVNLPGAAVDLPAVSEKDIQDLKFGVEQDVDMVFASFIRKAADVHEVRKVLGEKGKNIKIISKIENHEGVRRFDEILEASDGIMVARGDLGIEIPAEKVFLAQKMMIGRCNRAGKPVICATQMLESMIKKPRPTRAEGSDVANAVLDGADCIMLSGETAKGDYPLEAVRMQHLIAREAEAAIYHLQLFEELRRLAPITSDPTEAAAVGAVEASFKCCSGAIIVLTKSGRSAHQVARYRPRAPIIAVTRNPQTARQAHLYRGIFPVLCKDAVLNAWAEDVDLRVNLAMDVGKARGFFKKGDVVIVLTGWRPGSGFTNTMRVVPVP

With “PKM2 (pyruvate kinase M2), endogenous in mouse heart, P52480 1-531 (enzyme; other documents disagree on this pair)” the stoichiometry N was 4 and 2.
